Reference: patent US12228567B2, “Colorimetric sensor kit for screening therapeutic agent for neurodegenerative disease, including amyloid shelled-gold nanoparticle, and method for screening therapeutic agent for neurodegenerative disease” (Korea University Research and Business Foundation, priority 2019, dated 2025)

Key:
Aβ(1-42) = target: T1, Aβ(1-42) (Homo sapiens, UniProt P05067); test: Degradation activity of MMP-9 for the amyloid-gold nanoparticle, Aβ(1-42); assay type: biochemical; settings: ASGN made with Aβ(1-42)
T1 construct: can degrade Aβ(1-42)
T1 sequence (P05067 672-713 limits assumed): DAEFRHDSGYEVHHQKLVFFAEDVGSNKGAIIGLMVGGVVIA
Excerpt: (§1) For investigation of the reactivity of the Amyloid Shelled-Gold Nanoparticle (ASGN), the reactivity of the amyloid-gold nanoparticle with amyloid-degrading proteases (protease XIV and matrix metallopeptidase 9 (MMP-9)) was investigated. As a result, it was confirmed that the composite of the present disclosure can be used not only for drug screening but also for investigation of the activity of an amyloid-degrading enzyme.
(§2) Therefore, MMP-9 degrades and removes Aβ(1-42) in the Golgi apparatus and the cytoplasm in the neurons of the brain.

Aβ(1-40) = Aβ(1-40) (Homo sapiens, UniProt P05067); test: Degradation activity of MMP-9 for the amyloid-gold nanoparticle, Aβ(1-40); assay type: biochemical; settings: ASGN made with Aβ(1-40)
Aβ(1-40), sequence (P05067 672-711 limits assumed): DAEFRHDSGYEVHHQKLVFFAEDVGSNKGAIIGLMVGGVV
Excerpt: as §1, §2

matrix metallopeptidase 9 [MMP-9]
degradation of Aβ(1-42) on the amyloid-gold nanoparticle (Aβ(1-42)): specifically degrades Aβ(1-42) only
degradation of Aβ(1-40) on the amyloid-gold nanoparticle (Aβ(1-40)): cannot degrade
